Experimental data reported in PMC10303687 (Protein Science : A Publication of the Protein Society, 2023).
Ends that are not written are not given here.

T1: MDM2_(D. rerio) SWIB domain (zebra fish (Danio rerio))
T1 construct: four residues left at the N-terminus after PreScission digestion, GPGS or GPMG; which of the two for this variant is in Excel File 1 in Data S1; MDM2, zebra fish, SWIB domain; Construct limits are in Excel File 1 in Data S1; also called zebra fish MDM2; source: E. coli BL21 (DE3) or BL21 (DE3) pLys, purified (Ni Sepharose or glutathione agarose, PreScission cleavage, SEC); not shown: …
T1 sequence (O42354 whole entry, looked up): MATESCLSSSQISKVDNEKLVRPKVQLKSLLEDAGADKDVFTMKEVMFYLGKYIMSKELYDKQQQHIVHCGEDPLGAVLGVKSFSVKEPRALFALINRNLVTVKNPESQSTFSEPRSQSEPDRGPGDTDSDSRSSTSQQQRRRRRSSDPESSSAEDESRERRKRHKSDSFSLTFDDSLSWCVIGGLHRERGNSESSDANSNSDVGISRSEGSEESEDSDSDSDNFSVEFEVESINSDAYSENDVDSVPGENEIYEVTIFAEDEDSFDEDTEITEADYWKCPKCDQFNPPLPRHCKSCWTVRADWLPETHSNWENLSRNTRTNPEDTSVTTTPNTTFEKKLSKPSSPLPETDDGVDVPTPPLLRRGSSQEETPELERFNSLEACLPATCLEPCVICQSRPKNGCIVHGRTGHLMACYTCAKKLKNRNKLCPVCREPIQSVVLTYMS

B1: MDM2_(G. gallus) SWIB domain (domain or fragment)
chain: SPVSASEQEALVKPKPLLLKLLKLAGAEKDTFTMKEVIFYLGQYIMSKQLYDEKEQHIVHCANDLLGDLFGVTSFSVKEHRRIYSMISRNLIAINQQDSTLAVPPEDDA

Key:
Conditions in all cases: both partners purified
[1] = target: T2, MDM2_(H. sapiens) SWIB domain (human (Homo sapiens)); test: stopped-flow fluorescence kinetics; 10°C, 20 mM sodium phosphate pH 7.4, 150 mM NaCl, 1 mM TCEP; Trp23 emission; MDM2 constant at 0.5–2 μM, p53TAD varied 1–10 μM for k on; k off from displacement of the 1 μM:1 μM complex by 10–20 μM dansylated human p53TAD peptide; K D = k off/k on
T2 construct: four residues left at the N-terminus after PreScission digestion, GPGS or GPMG; which of the two for this variant is in Excel File 1 in Data S1; MDM2, human, SWIB domain; the limits of the human construct itself are in Excel File 1 in Data S1; also called human MDM2; MDM2_(Human); source: E. coli BL21 (DE3) or BL21 (DE3) pLys, purified (Ni Sepharose or glutathione agarose, PreScission cleavage, …)

[2] = target: MDM2_(Fishes/Tetrapods)^ML; test: as above
[3] = target: T2, MDM2_(H. sapiens) SWIB domain; test: fluorescence polarisation; displacement: FITC-labeled human p53TAD 15–26 (6 or 10 nM) and MDM2 constant, dilution series of unlabeled peptide; K D calculated from IC50; room temperature, same buffer as the kinetics
[4] = target: MDM2_(L. camtschaticum) SWIB domain (arctic lamprey (Lethenteron …)); test: as above
MDM2_(L. camtschaticum) SWIB domain (arctic lamprey (Lethenteron …)), sequence (chain, as listed by the source): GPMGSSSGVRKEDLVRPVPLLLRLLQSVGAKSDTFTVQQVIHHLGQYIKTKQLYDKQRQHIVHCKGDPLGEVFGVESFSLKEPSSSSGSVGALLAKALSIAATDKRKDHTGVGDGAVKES

[5] = target: MDM2_(Reptiles/Mammals)^AltAll; test: stopped-flow fluorescence kinetics; 10°C, 20 mM sodium phosphate pH 7.4, 150 mM NaCl, 1 mM TCEP; Trp23 emission; MDM2 constant at 0.5–2 μM, p53TAD varied 1–10 μM for k on; k off from displacement of the 1 μM:1 μM complex by 10–20 μM dansylated human p53TAD peptide; K D = k off/k on
[6] = target: T1, MDM2_(D. rerio) SWIB domain; test: as above
[7] = target: MDM2_(Fishes/Tetrapods)^AltAll; test: as above
p53TAD_(G. gallus)^14–26 = target: T3, p53TAD_(G. gallus)^14–26 (chicken (Gallus gallus), acetylated); test: as above
T3 construct: numbers count on: human p53 by alignment; also called chicken p53TAD; source: synthetic peptide, bought (Ontores Biotechnology, GL Biochem Shanghai Ltd or GeneCust)

[8] = target: MDM2_(H. sapiens) SWIB domain (human (Homo sapiens)); test: as above
[9] = target: MDM2_(Reptiles/Mammals)^ML; test: as above

| Binder | Kd [1] [nM] | Kd [2] [nM] | other results |
| --- | --- | --- | --- |
| SQDTFSDLWNQL (not fully specified (N-terminus); also: acetylated, site not given here) [p53TAD1R^AltAll] | 24 | 370 |  |
| Ac-NDVELAELPWAPEDVI [p53TAD_(I. scapularis)] |  |  | Kd [3]: 400000 nM |
| CVDDFDRVWQGGV (not fully specified (N-terminus); also: acetylated, site not given here) [p53TAD_(L. camtschaticum)] |  |  | Kd [4]: 250000 nM |
| SQETFSDLWNML (not fully specified (N-terminus); also: acetylated, site not given here) [p53TAD_(Reptiles/Mammals)^AltAll] | 9.5 |  | Kd [5]: 200 nM |
| SQETFDFLWKSL (not fully specified (N-terminus); also: acetylated, site not given here) [p53TAD_(Bilateria)^AltAll] | 170 | 650 |  |
| SQETFSDLWNML (not fully specified (N-terminus); also: acetylated, site not given here) [p53TAD_(Fishes/Tetrapods)^ML] | 8 | 145 | Kd [6]: 93 nM |
| SQETFNHLWNTL (not fully specified (N-terminus); also: acetylated, site not given here) [p53TAD_(Bilateria)^ML] | 600 | 2100 |  |
| SQESFSDLWNLL (not fully specified (N-terminus); also: acetylated, site not given here) [p53TAD_(Fishes/Tetrapods)^AltAll] | 19 |  | Kd [7]: 98 nM |
| B1 |  |  | Kd (p53TAD_(G. gallus)^14–26): 90 nM |
| SQETFNHLWNML (not fully specified (N-terminus); also: acetylated, site not given here) [p53TAD1R^ML] | 82 | 660 |  |
| DSQETFAELWEKN (not fully specified (N-terminus); also: acetylated, site not given here) [p53TAD_(D. rerio)^insertT18] |  |  | Kd [8]: 4900 nM; Kd [6]: 2300 nM |
| SQETFSDLWNLL (not fully specified (N-terminus); also: acetylated, site not given here) [p53TAD_(Reptiles/Mammals)^ML] | 8 |  | Kd [9]: 120 nM |
